Results taken from US20240117035A1 (published 2024).

Target: CD3 on CD3+ Jurkat cells (human, UniProt P07766 23-207)
Assay: FACS binding, Jurkat cells

Sequence of CD3 on CD3+ Jurkat cells (P07766 23-207): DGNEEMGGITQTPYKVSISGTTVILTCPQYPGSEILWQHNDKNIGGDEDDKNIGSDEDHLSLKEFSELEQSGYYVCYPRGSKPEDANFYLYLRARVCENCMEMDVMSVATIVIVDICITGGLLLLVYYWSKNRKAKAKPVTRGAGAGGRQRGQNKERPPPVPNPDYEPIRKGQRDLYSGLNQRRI

EC50: 26.5 nM
B1: m-13/CD3-v2 (antibody)
chain 1: QLQLQQSGTELVRPGSSVKISCKASGYAFSNYWMNWVKQRPGQGLEWIGQIYPGNGDTKYNGNFKGKATLTADKSSSTAYMQLSSLTSEDSADYFCARYYRGNCFDYWGQGTTLTVSS
chain 2: DIVLTQSPSSLTVTAGEKVTMSCKSSQSLLNSGNQKNYLTWYQQKPGQPPKLLIYWASTRDSGVPARFTGSGSGTDFTLTINSVQAEDLAVYYCQNAYTYPLTFGAGTKLEIK
chain 3: EVQLVESGGGLVKPGGSLKLSCAASGFTFSTYAMNWVRQAPGKGLEWVARIRSKYNNYATTYADSVKDRFTISRDDSKNTAYLQMNNLRTEDTAVYYCVRHGNWGNSYISYWAYWGQGTTVTVSS
chain 4: not shown
